Reference: the DeepSol protein solubility set

Assay: soluble on expression in E. coli; label from the status in PepcDB or PDB records

Row | Sequence | soluble on expression in E. coli
1 | MLFSMESILSSTKPKLEPPPKLEPEVTINEQVVDLPRSNTRLSEPSTSASVLEHDLKFGESRKRSRSLGDEPTEDEDGVPVRKANKRNHSTSSAADSSSDDAKDDDDDDDSTSRKSMSGHRKSSHAKPPYSYIALIAMSILNSPEKKLTLSEICEFIINKFEYYKEKFPAWQNSIRHNLSLNDCFVKVARGPGNPGKGNYWALDPNCEDMFDNGSFLRRRKRYKKNSDTYHEMMSHHPMPFPPFLPQGMPFPPRMMHPMANIPMLGHPMNPRAVPNMPAFFIPQNIDSQKLLSMMASRIMPMDAPVSSGQKRTSSSSSPNENGSSAVSDKLSA | soluble
2 | MLGLRRKVRIETERMTLRLPAHSDWRDWAALRAESATFLTPWEPVWSSDHLSRKAFTNRVYWAARAESQGTALPVLLIRREDQALLGAITLDNIRRGPAQSGTLGYWIGRPHARQGYMREAIQGIVHHAFTAMDVSRIEAACLPENAASRGVLEKCGFKYEGVAQSYLQIAGRWRNHVLYANLRGDRRGRTDAG | not soluble
3 | MLGVLKKVFDPNKRQLARLEKIADQVDALGPEMARLSDEQLRQKTEEFKARYQQGESLDDLLVEAFAVVREGAKRVLGLYPYKVQIMGGVVLHEGDIAEMKTGEGKTLTATMPVYLNALTGRGVHVVTVNEYLATRDATEMGKLYEFLGMTVGLNLSGMSREEKQAAYNADITYGTNNEFGFDYLRDNMVLYKEHIVQRPLYYAIIDEVDSILIDEARTPLIISGTAQKSTKLYVQANAFVRTLRKDVDYTYDEKTKSVQLTEEGINKAERAFGIDNLFDLKHVTLNHHIQLALRAHVTMQRDVDYVVQDGKVIIVDPFTGRLMHGRRYSDGLHQAIEAKEGLEIQNESMTLATITFQNYFRMYEKLAGMTGTAKTEEEEFRNIYNMRVVVIPTNRPVIREDRPDLIYRTMEGKFRAVVEDIAARHAKGQPVLVGTVAIETSEMLSEMLKKRGIPHNVLNAKNHAKEAEIIAQAGQKGAVTIATNMAGRGTDIKLGEGVKELGGLAVIGTERHESRRIDNQLRGRSGRQGDPGVSQFYLSLEDELMRRFGSESLMAMMDRLGMDDSQPIQSKMVTKAVESAQKRVEGNNFDARKQLLQYDDVLREQREIIYRQRYEVLDSDNLRGIIEKMIQSVIERVVNAHTPKEEVPEEWNLKGLVEYLNAHLLPEGDVTEADLRGKEPEEMIELIWAKVKARYDEKEAQIPPEQMREFERVVVLRAVDMKWMNHIDAMEQLRQGIHLRAYGQVDPLREYQMEGYAMFEEMIAAIEEEVATYIMKAEIHHNLERQEVAKGEAVHPKEDGEEPKRKPVRKAVRVGRNDPCPCGSGKKYKHCCGRTV | not soluble
4 | MLHITLHQLKIFESVARLLNFTHAAEELHLTQPAVSIQIKRLEEMVALPLFEQIGKRVHLTEAGKELFHYSRGITRQLADMELALDELKGLERGKLSISVVSTANYFVPNLLAKFCQRYPGITISLHVSNRENVLKQLSDNIMDLAIMGQPPEGLDITSESFMENPLVIIAPPEHPLCGQKQIPVKRLEQEIFLVREPGSGTRNAMERFFAHEKISIQKGMEADTAEAIKQAIQAGMGLGIMSLHTIRLELEAGRLKILDIQGLPIMRYWNVVHQKNKRLSNISSVFKQFLLNEAADLVALEYPHRNTT | not soluble
5 | MLIIETLPLLRQQIRRLRMEGKRVALVPTMGNLHDGHMKLVDEAKARADVVVVSIFVNPMQFDRPEDLARYPRTLQEDCEKLNKRKVDLVFAPSVKEIYPNGTETHTYVDVPGLSTMLEGASRPGHFRGVSTIVSKLFNLVQPDIACFGEKDFQQLALIRKMVADMGFDIEIVGVPIMRAKDGLALSSRNGYLTAEQRKIAPGLYKVLSSIADKLQAGERDLDEIITIAGQELNEKGFRADDIQIRDADTLLEVSETSKRAVILVAAWLGDARLIDNKMVELA | soluble
6 | MLIINKLNHAQKQLEKLNFIPQQADKVDFLASSSEFKARILQLINTAKSRIYLTALYFEQDEAGQQILAALYQAKLANPALDIQILVDWHRAQRGRIGEKTTSSNADWYANMKQQYNLPPEQEIAVWGVPINGREIFGVLHLKGFIFDDTILYSGASINNVYLQQFDRYRYDRYHTLENKVLADSLVTFLQQHILTDHAVNRLDNMQRPVTANIRPAIKAFRKQLTKQQYQFAEQPESNGLMLSPIAGLGRKNQLNKTIEALFYKTQNKLTICTPYFNFPRSLITRIKWLLENGKQVEIIAGDKKANDFYTPPDKKFTMAAALPYLYEKNLRAFAKRFDSYIQNKLLTIRLWKDGENTYHLKGLWVDNRYILLTGNNLNPRAWGLDAENGILLDDPKAELAEKAALELTQIRTFTQELSHYSDLETIKDYPLEVQKLLKKFGRVKLDKIIKMLLLEHHHHHH | not soluble
7 | MLIKVKTLTGKEIELDIEPNDRVERIKEKVEEKEGIPPPQQRLIFAGKQMNDDKTAADYKVLGGSVLHLVLALRGGF | not soluble
8 | MLIPGAHYRGDVPMYPASVVKLFYLVACHEWLHSGMLQPDAELERAMRDMIVDSSNDATSLVVDMLTGTTSGPVLPPEPFRTWQYQRNIVNRYFQSLGWPELTQINVNQKTWCEGPYGREQEFVGRDRQNANRLTTNATAKLIHSIVGGVAVSASASQGMMELMERSLDPELLAQDPENQVQGFLGEGLPPGAKLWSKAGLTSWVRHDAAYIELPDRCPYTLVVFMENSTASKNTEVLPFISRQIASGILEHHHHHH | not soluble
9 | MLIREIEKKDNEQVETLIRTCLIEFGADKPGCAWTDPDLGRFYEIYQDKKSKYWVVEEEGKIIAGCGIGPLNGAENVCELQKMYSYKEARGTGIAKDLLGLALDFAKKYYDKCYLETFSNMTAANKFYVKNGFKKLEKPLIETDHYACDVWYIKEL | not soluble
10 | MLIWSPSVRIAANIRTDNPNSLKRNANMPQLTLDKTDIKILQVLQENGRLTNVELSERVALSPSPCLRRLKQLEDAGIVRQYAALLSPESVNLGLQAFIRVSIRKAKDAREDFAASVRKWPEVLSCFALTGETDYLLQAFFTDMNAFSHFVLDTLLSHHGVQDAQSSFVLKEIKHTTSLPLNHLLKE | not soluble
11 | MLKGHLHSVESLGTVDGPGLRYILFTQGCLLRCLYCHNPDTWKISEPSREVTVDEMVNEILPYKPYFDASGGGVTVSGGEPLLQMPFLEKLFAELKENGVHTCLDTSAGCANDTKAFQRHFEELQKHTDLILLDIKHIDNDKHIRLTGKPNTHILNFARKLSDMKQPVWIRHVLVPGYSDDKDDLIKLGEFINSLDNVEKFEILPYHQLGVHKWKTLGIAYELEDVEAPDDEAVKAAYRYVNFKGKIPVEL | not soluble
12 | MLKIIPGATGYFNKTLNSNQFDNEDAIKDKLDNRGSIKGKLNNIYGKSIDYAALRHRDIIIAKIDLFIQRITHNLWHARKKMCFLEHHHHHH | not soluble
13 | MLKKILLSLVVFYQRFISPLTPPTCRFYPTCSQYTREAIEYHGALKGLYLGVRRILKCHPLHKGGFDPVPLKKDKNSKTTHHHLEHHHHHH | not soluble
14 | MLKQVEIFTDGSCLGNPGPGGYGAILRYRGREKTFSAGYTRTTNNRMELMAAIVALEALKEHCEVILSTDSQYVRQGITQWIHNWKKRGWKTADKKPVKNVDLWQRLDAALGQHQIKWEWVKGHAGHPENERCNELARAAAMNPTLEDTGYQVEV | soluble
15 | MLKRLISIPTVAPQGDHYGEAAELLARELESLGFETVVERVPSEYQREKCRHASDNPRFIVYGRRGEGPALHFNGHYDVVPGGPGWSVTEPFKPVVKDGKLYGRGAIDMKGGIAAALGAFKALHLSGAWPQGLRVEAAFVPDEEIGGECGTGYLVNGMGVTPEYVVLPEPSGLEKPWHGHRGILWMKVRVKGRTAHASTPWHGRNAFLLASAIALDLQQALASMYAGRRSRHRIEPEESAKPTVSLGGEAGVTGGGKTNQVPGEFYFTVDRRLIPEETVSQARDELLGVLTWLSVKHGAEVEAEEVISAEPAINEPGELYEALREAASQSGRSIGEPVVCPGGLDMWYYTVKGSKALAYGPRGELAHAPDEHIDLGELRFLVETFARLPITLAVALQRRT | soluble
16 | MLKSVLGKFSVGDKMIEVTFLGAGGGRFVTITQVRSTGGFFIKASKNIFVDPGPGALIRMIRYKLDPRKIDVLFISHRHTDHCNDAEVIVEGMTYGVTKRRGILIGSRSVVHGDDAHTPALSKYHLEALEEVHAPNPGDRFKLGNEDMVITPSVHSDPTTIGFRLKTNFGDISYIADTEYFEGLEEWHDGTRVLIASVTRPRDMKIPYHLSTDDVVYMLKKMKEKPEVLIMTHLGMKMHFAGPYKEAEYIQNVTGVKTYVAKEGFRITIGKEIHVKTLRPVRFVLEHHHHHH | soluble
17 | MLKTILSIAGKPGLYKLISQGKNMLIVETVDAAKKRVPAYAHDKVISLADIAMYTDAEEVPLSEVLEAVKKKENGAVASINYKKASADELHAYFAEVLPNYDRDRVHNGDIKKLISWYNILVNNGITEFVEAPADSADKVEEAVAELEHHHHHH | soluble
18 | MLKTPSDAAVAGCLSLLLEVSGNPKAGNVDREHDFDDLKFEHFLASAAGAFPAFLEVAEKRIIGEGVLRAVKESMRWHRAENVHFGAFLLLVPLISSWDAG | not soluble
19 | MLLEIKDLVYKASDRIILDHISLKVDKGESIAIIGPSGSGKSTFQKQICNLFSPTSGELYFKGKPYNDYDPEELRQRISYLMQQSDLFGETIEDNMIFPSLARNDKFDRKRAKQLIKDVGLGHYQLSSEVENMSGGERQRIAIARQLMYTPDILLLDESTSALDVNNKEKIENIIFKLADQGVAIMWITHSDDQSMRHFQKRITIVDGQISNTEELNQHE | soluble
20 | MLLLRITMLEGRSTEQKAELARALSAAAAAAFDVPLAEVRLIIQEVPPTHWTVGGISMAELRQQASTSTQGQ | soluble
21 | MLLMMVVGLTAGVLAGCANPKDTTEEFLTAIQKGDIEKARTFVESDKEFNKLNEKTDDAEAKAMLSAITKNFKFEKLEEVSKKDDKAEVKVKITSADLSVAVTKAVGEVMPMAFASAFSEDKEQSEKAIEKTMTSTIIKNLTDKDAAMATREVTLNLKKDKDGDYKIVADDNLKEVLFANAKSLEKMFGGK | not soluble
22 | MLLNLDVRMQLKELAQKEFKEPVSIKLFSQAIGCESCQTAEELLKETVEVIGEAVGQDKIKLDIYSPFTHKEETEKYGVDRVPTIVIEGDKDYGIRYIGLPAGLEFTTLINGIFHVSQRKPQLSEKTLELLQVVDIPIEIWVFVTTSCGYCPSAAVMAWDFALANDYITSKVIDASENQDLAEQFQVVGVPKIVINKGVAEFVGAQPENAFLGYIMAVYEKLKREKEQA | soluble
23 | MLLQELHIYSEQSSSNTKVSIKNKDGEILFEYCYSNDAIPTFNPIELLRLSLEGDIGVLFQMKTSISQKSKKDDFRISCEQSRSETSRMNQ | not soluble
24 | MLLSLYIPPGRPIPDVLNLLRQEYSIAQNIKLKRTRDAVTSAIQSAIDRLTQIPKVPDNGLVIFCGENFETEESKCFVFSPPEKVTIFFYRTDKYFHTEFLEDMIEENDVFGLIIVERDYATIGILKGTRIEVLDEFEGFVPGKHMMGGQSQRRIDRIIEEMYANFLKEVGEKANSYLLPYLESGKLKGILLGGPGYAKKDFYDGDYLDYRLKKLVLLPLIDIPDQGDAGLKELVMKAQDILKNQKYVQVQNLLEELKYHIAKDDGLVVYGIEEIRKALHMGAVDSLVIYDEPNSELEKLSQEAENYGTKVYVVGDELPDAEWVKKTFGGAIGKLRYKIY | soluble
25 | MLLTNKGDVMLGLKQVHHIAIIATDYAVSKAFYCDILGFTLQSEVYREARDSWKGDLALNGQYVIELFSFPFPPERPSRPEACGLRHLAFSVDDIDAAVAHLESHNVKCEAIRVDPYTQKRFTFFNDPDGLPLELYEQ | not soluble
